Assay results as given in the RNAGym collection of RNA variant scans (doi:10.1073/pnas.2313332121).

B1: TPR t1 (parent)
chain: GACCAAUCUGCCCUCAGAGCUCGAGAACAUCUUCGGAUGCAGAGGAGGCAGGCUUCGGUGGCGCGAUAGCGCCAACGUCCUCAACCUCCAAUGCAUCCCACCACAUGAUGAUGCCUGAAGAGCCUUGGUUUUUUG

Variants of: B1
Assay: polymerase ribozyme fitness, log enrichment relative to wild type (log ratio); higher = more active; in vitro selection for triplet polymerase activity
Outline: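 Mutant libraries of each subunit of a heterodimeric triplet polymerase ribozyme were built by PCR and transcribed. Each library went through one round of in vitro selection in triplicate: annealing with biotinylated primer, partner subunit and triplets, frozen incubation at −7 °C, gel excision of extended constructs, streptavidin-bead capture and RT-PCR. Input and output libraries were Illumina-sequenced; only genotypes with ≥10 input reads and ≥1 read per output were kept. Fitness is log2(genotype enrichment/wild-type enrichment), using inverse-variance-weighted replicate averages.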

In order of falling “polymerase ribozyme fitness (log ratio)” value:
1. C89G C104U A121U  1.58
2. A84C G120U  1.51
3. U32C U112A  1.49
4. C82A A118G A121G  1.48
5. G39A C124A  1.38
6. U87A A121C  1.23
7. A83G U112C U131A  1.02
8. A100C C124A  0.995
9. G36A A121C  0.979
10. G47C U54G G58C G69U C123G  0.703
11. C12U G117A  0.626
12. U9A C85U  0.475
13. U54A C56U G93A  0.304
14. C8A C72G U133G  0.138
15. G71A U112C  0.03
16. U96A C123U  -0.01
17. C62U G120U  -0.189
18. A6C G47A C62U C86U U133G  -0.219
19. C80U U106C  -0.325
20. G69A A121U  -0.353
21. C11A C49U C73A C86U A95G U106G C123U  -0.375
22. A91G C104U A118C C123G C124A U126A  -0.422
23. C73U U87A C115A  -0.423
24. U9G U87A A100C  -0.443
25. C53A C56U U106C  -0.479
26. C4U C73U  -0.492
27. G63C U130A  -0.551
28. A74C G93A  -0.578
29. C11U C72G  -0.586
30. C73A G127U  -0.602
31. A5U C53U C64U U106A  -0.639
32. C53A A84U G117U C123G  -0.712
33. C8U U92C  -0.788
34. A50G C85G  -0.79
35. C72A C80U C88U  -0.793
36. C72U C94G A95G C123U  -0.867
37. C40G G69U U92A G93A C94G A119G  -0.914
38. G48A C56G  -0.92
39. C53A C88U U106G  -1.18
40. U38A G39A G61U  -1.2
41. A50U C56U A83C  -1.21
42. U55A G61C U96A G120C  -1.22
43. C3U A37U C40A G60U  -1.23
44. G47A C53G C101U U131A  -1.26
45. U116C U132C  -1.33
46. U7G C15G C49G U112G  -1.33
47. A2U C12G  -1.36
48. C12A G127U  -1.39
49. C4U G61A C89A  -1.4
50. G63A G135U  -1.49
51. A41C G113A C124G  -1.49
52. U21C G69U C88U C94G C124U  -1.5
53. G42U C73U  -1.51
54. A37U C72U  -1.56
55. G36U A46U C72A C97U  -1.58
56. C3G  -1.58
57. C115G  -1.59
58. C56U U78C U81G C94U  -1.62
59. U14A G63C C82U U112G  -1.65
60. A29G C73A  -1.67
61. U7A C12U A43U C49A C114G  -1.69
62. G69C A83U U129A  -1.71
63. G47C C70U U78A  -1.82
64. C64U G128A  -1.84
65. C53A C114A  -1.87
66. A6U U7C A41G G110A  -1.88
67. C49U C62A U96C  -1.91
68. A41U G57A  -1.97
69. U7A G10C U21A C56U  -2.02
70. A27U G47U  -2.07
71. C4U U129A  -2.07
72. G77A G120A G128C  -2.08
73. G61U G117C  -2.09
74. C56U C72U C80U A90C  -2.11
75. C40U C76U G117A  -2.16
76. C73G A90C  -2.17
77. A26U C124U  -2.17
78. C3G C12G A83C U106A  -2.23
79. A43U G69C  -2.32
80. A6G C64U C73U G117C  -2.37
81. C12U C20U A43U C72U C82A U112A C114G  -2.38
82. G17A A43G G47U G120C G135C  -2.39
83. C104A G117A  -2.41
84. C15U A16C  -2.44
85. G17C G69U G122A  -2.46
86. C12U U109C  -2.5
87. C76A C89U U129A  -2.51
88. A16U G42U  -2.52
89. A2C G128U  -2.55
90. G10U A18C  -2.58
91. C40G C94A  -2.65
92. A5C G39C C70U G113A G120A C123A  -2.68
93. C11G C13A C88G  -2.71
94. C62G G93U  -2.74
95. G57A G69U C86A C101G  -2.75
96. G17U C88A  -2.77
97. C79A G93U  -2.82
98. C80A  -2.86
99. G39U G57A C80A  -2.91
100. C11G G19A C53U C89A  -2.96
101. A43U C76A  -2.98
102. C34A G61A  -2.98
103. G48A U54A C62U C82U C85A C104A  -2.99
104. A43C G117A  -3.01
105. A5G A18U G42U G52C G69C  -3.05
106. G17U U21A U112C C123A  -3.07
107. G36U C82A G113U  -3.08
108. C11G A41U G47C U59A  -3.12
109. G39U G42A G57U G117A C124G  -3.25
110. C8G U14G A43C G47U C82G U133A  -3.36
111. C79A U112A G128U  -3.42
112. G63C U116A  -3.47
113. C40G C53A C70U C115G U125A  -3.58
114. U7G G52A C104A C114G U133G  -3.61
115. C102U U125A U129C  -3.71
116. C104A C114G  -3.81
117. A16G G42U C102U C124G  -3.81
118. C15A C20U C73A G93A  -3.83
119. G58C C115G C123A G135A  -3.89
120. A41G C56A C102U  -3.9
121. C70G A100U  -4.02
122. C22G C115A  -4.07
123. C20U C40G G63C  -4.09
124. C20G C62U C98U A111U G120C  -4.17
125. G10U G51A G61U A100C G113A G120A  -4.29
126. G36A C72G G110U  -4.37
127. C72U C82G G113U  -4.51
128. C11U U21A A27G A105G  -4.61
129. G10C C11G C22G C76U  -4.64
130. C101U G107A  -4.66
131. U9A C22A  -4.76
132. G61C G63A  -4.78
133. C15G C56G G57C C72G C104U U131C  -4.86
134. C15U A43C C70A C123U C124A  -4.89
135. U92A G117U  -4.95
136. C8A G17A U54A G71U C94A  -4.99
137. A24G A111G G122U  -5
138. C12G A43U U92G C104A G117U A118U  -5.1
139. G10A A74G C97U C101U A105G U130G  -5.19
140. A18G G44A C72G  -5.19
141. G17U G117C  -5.24
142. A18C G19U G48A G58C C62G C124A  -5.33
143. C4U C72A A91G G117C  -5.33
144. G36C G63U A83G U126G  -5.42
145. U32C C49U C53U A75G A83C C99U  -5.45
146. C20U G60A G107C G120C  -5.52
147. G45A G60U C64U C94U A105U C124A G127A  -5.55
148. C64A C80G A103C U109G A118U  -5.65
149. U9G C56U C114A C115G  -5.74
150. G23A C56U G110C  -5.74
151. U7G U78G C80G G135U  -5.8
152. A27U G63C G71A C82G G113A U129A  -5.8
153. A26C U92A  -5.95
154. A46G A95U A105U U109A  -6.27
155. U9G G39A G57A C114G G117A  -6.32
156. C13A G45A G113U G117C  -6.5
157. C3A G110C U112A G117A U132C  -6.59
158. C15U G58C C72A C102G G107U A121C  -6.59
159. G35C G52U C53G A90G C98U  -6.7
160. G36A G45U U59A C72G C97G C98U C102A A111G  -6.75
161. A24G C56G C72U C86U U92A U129C  -6.8
162. A18U C20G G61A  -6.8
163. C49A G71A C98G A100C  -7.02
164. A24U A83U  -7.24
165. G36A G107A C124A  -7.46
166. G60U C94G G110C G117A  -7.56
167. C70G C99A  -7.95
